Experiment [1] deals with CD28 (human) (UniProt P10747).
The target in experiment [2] is PD-L1 (human) (UniProt Q9NZQ7).
Experiment [3] has as its target CD28 (human) (UniProt P10747). This is another data set of the same source.
Experiment [4] deals with PD-L1 (human) (UniProt Q9NZQ7). This is another data set of the same source.
In experiment [5] the target is CD28 (human) (UniProt P10747). Description: flow cytometry, Jurkat cells (CD28).
Experiment [6] concerns the target human CTLA-4 (human) (UniProt P16410). Description: flow cytometry, CHO cells stably expressing CTLA4. In general terms: Flow cytometry measures light scatter and fluorescence of single cells or particles in a stream.
In experiment [7] the target is PD-L1 (human) (UniProt Q9NZQ7). Description: flow cytometry, CHO cells stably expressing PD-L1.
In experiment [8] the target is human CTLA-4 (human) (UniProt P16410). The experiment in a line: flow cytometry, CHO/CTLA4 cells; MFI over CD80 WT IgV-Fc.
Sequence of human CTLA-4 (human) (P16410 36-223): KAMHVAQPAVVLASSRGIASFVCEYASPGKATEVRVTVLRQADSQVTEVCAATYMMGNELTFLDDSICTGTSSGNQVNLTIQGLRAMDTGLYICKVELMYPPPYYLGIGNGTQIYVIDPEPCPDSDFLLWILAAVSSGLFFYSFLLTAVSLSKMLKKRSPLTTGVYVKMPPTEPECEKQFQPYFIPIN
For experiment [9], the target named is PD-L1 (human) (UniProt Q9NZQ7). The experiment in a line: flow cytometry, CHO/PD-L1 cells; MFI over CD80 WT IgV-Fc.
Experiment [10] deals with CD28 (human) (UniProt P10747). Description: flow cytometry, Jurkat cells (CD28); MFI over CD80 WT IgV-Fc.
Experiment [11] concerns the target CD28 (human) (UniProt P10747). The source holds these as a separate data set.
Experiment [12] concerns the target PD-L1 (human) (UniProt Q9NZQ7). This is another data set of the same source.
The target of experiment [13] is CD28 (human) (UniProt P10747). This is another data set of the same source.
In experiment [14] the target is PD-L1 (human) (UniProt Q9NZQ7). The source holds these as a separate data set.
The target of experiment [15] is CD28 (human) (UniProt P10747). The source holds these as a separate data set.
The target in experiment [16] is PD-L1 (human) (UniProt Q9NZQ7). This is another data set of the same source.
For experiment [17], the target named is CD28 (human) (UniProt P10747). This is another data set of the same source.
For experiment [18], the target named is PD-L1 (human) (UniProt Q9NZQ7). The source holds these as a separate data set.
The target in experiment [19] is CD28 (human) (UniProt P10747). Description: flow cytometry, HEK293 cells transfected with full-length human CD28, PE anti-human Fc.
Experiment [20] deals with PD-L1 (human) (UniProt Q9NZQ7). The experiment in a line: flow cytometry, HEK293 cells transfected with full-length human PD-L1, PE anti-human Fc.
The target of experiment [21] is human CTLA-4 (human) (UniProt P16410). The experiment in a line: flow cytometry, HEK293 cells transfected with full-length human CTLA-4, PE anti-human Fc.
Experiment [22] shares this target. The experiment in a line: flow cytometry, CHO cells expressing huCTLA4.
For experiment [23], the target named is PD-L1 (human) (UniProt Q9NZQ7). The experiment in a line: flow cytometry, CHO cells expressing huPD-L1.
In experiment [24] the target is CD28 (human) (UniProt P10747). The experiment in a line: flow cytometry, Jurkat/IL2 reporter cells (CD28).
The target of experiment [25] is human CTLA-4 (human) (UniProt P16410). The experiment in a line: flow cytometry, CHO cells expressing huCTLA4, vs WT CD80 ECD-Fc (R&D).
For experiment [26], the target named is CD28 (human) (UniProt P10747). Description: flow cytometry, Jurkat/IL2 reporter cells (CD28), vs WT CD80 ECD-Fc (R&D).
For experiment [27], the target named is CD28 (human) (UniProt P10747). The source holds these as a separate data set.
Experiment [28] addresses PD-L1 (human) (UniProt Q9NZQ7). This is another data set of the same source.

Like-named read-outs stand apart in the source and are kept apart here.

Sequence of PD-L1 (human) (Q9NZQ7 19-290): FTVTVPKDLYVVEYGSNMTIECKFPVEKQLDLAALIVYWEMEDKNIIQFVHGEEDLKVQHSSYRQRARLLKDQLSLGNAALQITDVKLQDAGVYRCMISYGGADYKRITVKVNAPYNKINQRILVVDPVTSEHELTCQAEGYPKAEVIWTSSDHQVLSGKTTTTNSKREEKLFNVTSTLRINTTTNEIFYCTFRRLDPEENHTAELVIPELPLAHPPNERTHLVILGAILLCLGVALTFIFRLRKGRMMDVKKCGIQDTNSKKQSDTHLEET
Sequence of WT CD80 ECD-Fc (inert) (Fc fusion) (chain): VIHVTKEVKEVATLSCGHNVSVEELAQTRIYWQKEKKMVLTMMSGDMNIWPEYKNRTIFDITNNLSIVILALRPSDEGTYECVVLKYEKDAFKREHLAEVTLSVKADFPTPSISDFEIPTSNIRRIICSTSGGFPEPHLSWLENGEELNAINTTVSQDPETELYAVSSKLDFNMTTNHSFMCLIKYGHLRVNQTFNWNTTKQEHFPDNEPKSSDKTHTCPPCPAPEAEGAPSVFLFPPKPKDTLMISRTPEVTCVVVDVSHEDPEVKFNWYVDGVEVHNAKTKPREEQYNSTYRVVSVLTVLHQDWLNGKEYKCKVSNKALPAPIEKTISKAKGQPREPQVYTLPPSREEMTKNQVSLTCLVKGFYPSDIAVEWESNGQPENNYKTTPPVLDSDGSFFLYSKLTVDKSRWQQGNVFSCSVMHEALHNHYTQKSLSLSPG

In the case of “CD80 E35D/M47V/N48K/V68M/K89N IgV-Fc, delta linker (Fc fusion)”, the IL2-luciferase reporter, fold increase in RLU over WT CD80-IgV-Fc at 5.0 nM with CD28 (human) [1] and with PD-L1 (human) [2] was 2.63 fold each time.

Turning to “variant CD80 IgV-Fc (inert) H18Y/A26Q/E35D/M47T/V68M/A71G/D90G (Fc fusion)”, the IL2-luciferase reporter, fold increase in RLU over WT CD80-IgV-Fc at 5.0 nM with CD28 (human) [3] and in the experiment with PD-L1 (human) [4] was 5.8 fold each time. Also, the MFI at 33.3 nM with CD28 (human) [5] amounted to 6730 MFI; in the experiment with human CTLA-4 (human) [6], 16700 MFI; with PD-L1 (human) [7] it was 24400 MFI. For the same substance, the Fold change to WT CD80 with human CTLA-4 (human) [8] worked out at 12 fold; in the experiment with PD-L1 (human) [9] it was 148 fold; with CD28 (human) [10] it was 66 fold.

On to WT CD80 IgV-Fc (inert) (Fc fusion), for which the Jurkat/IL2 reporter RLU at 50 nM, CHO/OKT3/PD-L1 aAPC with CD28 (human) [11] and in the experiment with PD-L1 (human) [12] was 483 RLU in each case. In the experiment with CD28 (human) [11], this substance gave a Jurkat/IL2 reporter RLU at 50 nM, CHO/OKT3 aAPC without PD-L1 of 479 RLU. Moreover, the Jurkat/IL2 reporter RLU at 50 nM, K562/OKT3/PD-L1 aAPC with CD28 (human) [13] came to 566 RLU; with PD-L1 (human) [14], 566 RLU; with CD28 (human) [15] it was 206 RLU; with PD-L1 (human) [16], 206 RLU. Further, the IL-2 release, primary T cells + K562/OKT3/PD-L1, 100 nM with CD28 (human) [17] and with PD-L1 (human) [18] was 52 throughout. For the same substance, the MFI at 66.6 nM stood at 1620 MFI in the experiment with CD28 (human) [19] and 20700 MFI with human CTLA-4 (human) [21]. This substance also returned an MFI at 22.2 nM with PD-L1 (human) [20] of 1770 MFI.

In the experiment with CD28 (human) [11], WT CD80 ECD-Fc (inert) (Fc fusion) returned a Jurkat/IL2 reporter RLU at 50 nM, CHO/OKT3 aAPC without PD-L1 of 420 RLU. In the experiment with CD28 (human) [19], this substance showed an MFI at 66.6 nM of 3070 MFI.

As to “variant CD80 IgV-Fc E35D/M42V/M47V/E52D/L85Q (Fc fusion)”, the MFI at 33.3 nM is 226000 MFI with human CTLA-4 (human) [22], 11900 MFI with PD-L1 (human) [23] and 1290 MFI with CD28 (human) [24]. In addition, the Fold change to WT CD80 turned out to be 1.44 fold in the experiment with human CTLA-4 (human) [25] and 0.07 fold with CD28 (human) [26].

The substance “variant CD80 IgV-Fc E35D/A71D (SEQ ID NO: 194) (Fc fusion)” gave an MFI at 22.2 nM in the experiment with PD-L1 (human) [20] of 13800 MFI.

Consider “CD80 V22A/E35D/M47L/A71G IgV-Fc (Fc fusion)”, for which the IL2-luciferase reporter (RLU), fold increase over WT CD80-IgV-Fc at 5.0 nM with CD28 (human) [27] and with PD-L1 (human) [28] was 6.5 fold in each case.

“CD80 E35D/M47V/L85M/R94Q IgV-Fc (Fc fusion)”: the IL2-luciferase reporter (RLU), fold increase over WT CD80-IgV-Fc at 5.0 nM in the experiment with CD28 (human) [27] and with PD-L1 (human) [28] was 1.2 fold each time.

For the substance “variant CD80 IgV-Fc (inert) H18Y/E35D/M47V/V68M/A71G/D90G (Fc fusion)”, the IL2-luciferase reporter, fold increase in RLU over WT CD80-IgV-Fc at 5.0 nM with CD28 (human) [3] and with PD-L1 (human) [4] was 4.8 fold in each case. In addition, the MFI at 33.3 nM in the experiment with CD28 (human) [5] came to 6790 MFI; in the experiment with human CTLA-4 (human) [6] it was 17200 MFI; with PD-L1 (human) [7], 52200 MFI. Moreover, the Fold change to WT CD80 was 12.4 fold in the experiment with human CTLA-4 (human) [8], 316 fold with PD-L1 (human) [9] and 66.6 fold with CD28 (human) [10].

These data come from patent US20220177587A1, “METHODS AND USES OF VARIANT CD80 FUSION PROTEINS AND RELATED CONSTRUCTS” (Alpine Immune Sciences, Inc., priority 2018, published 2022).
